# From patent US20240392013A1, “IL1RAP ANTIBODIES AND USES THEREOF” (STELEXIS THERAPEUTICS, LLC, priority 2021, published 2024)
# T1: hIL1RAP (Homo sapiens, UniProt Q9NPH3)
# T1 sequence (Q9NPH3 21-367 limits assumed): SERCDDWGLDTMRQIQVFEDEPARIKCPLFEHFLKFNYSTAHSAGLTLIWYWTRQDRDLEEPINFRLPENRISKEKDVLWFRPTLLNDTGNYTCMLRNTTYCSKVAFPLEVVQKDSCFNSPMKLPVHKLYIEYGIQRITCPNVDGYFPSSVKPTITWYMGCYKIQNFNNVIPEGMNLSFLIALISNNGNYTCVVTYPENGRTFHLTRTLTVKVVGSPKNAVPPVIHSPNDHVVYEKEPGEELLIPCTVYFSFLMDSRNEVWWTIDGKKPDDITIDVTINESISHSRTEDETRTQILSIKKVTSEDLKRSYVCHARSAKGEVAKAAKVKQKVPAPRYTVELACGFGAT
# How the values were obtained:
# [1] = system: IL1-induced NFκB activity; assay: HEK-BlueIL1β NFκB Reporter Assay; format: cell-based; conditions: nM range, read-out: IC50, inhibition of IL1-induced NFκB activity
# Procedure: The HEK-Blue IL1β (Invivogen, Cat #hkb-il1b) cell line was used to monitor NFκB activity upon stimulation with IL1β cytokine. In this cell line the secreted embryonic alkaline phosphatase reporter gene (SEAP) is inducibly expressed under the control of IFN-β minimal promoter fused to NFκB/AP-1. Specificity to IL1β cytokine was achieved by blockage of TNF-α response. The cells were maintained in the presence of hygromycin (200 μg/ml) and zeocin (100 μg/ml).
# For the functional assay, cells were plated at a density of 5×10^4 cells/well in 96-well plates. Cells were treated with each antibody at the highest concentration of 200 μg/ml followed by seven serial 1:3 dilutions and incubated for 45 minutes at 37° C./5% CO2 in humified incubator. Cells were then stimulated with IL1β ([…]) and incubated overnight at 37° C./5% CO2 in humified incubator. Every treatment was conducted in triplicates. Following, supernatants from each well were mixed with Quanti-Blue substrate (Invivogen, CA USA; Cat #rep-qb1) according to manufacturer's recommendations and secreted SEAP was measured using spectrophotometer at 650 nm.
# [2] = system: AML patient samples; assay: Clonogenic capacity of AML patient samples; format: cell-based, human; conditions: 333 nM, two weeks
# Procedure: AML patient samples or healthy control samples (4000 cells) were washed and resuspended in 30 μl Iscove's Modified Dulbecco's Medium (IMDM) media supplemented with 2% FBS. Cells […] were mixed with 3 ml methylcellulose (MthoCult H4034 Optimum) supplemented with pen/strep or primocin (100 μg/ml) and IL1RAP antibodies (333 nM) and 1 ml were seeded in 35 mm dishes in duplicates. The dishes were incubated at 37° C./5% CO2 in humidified incubator for 14-16 days. Colonies were counted using inverted microscope.
# [3] = system: AML patient-derived leukemic cells; assay: Jurkat-Lucia NFAT-CD16 ADCC reporter assay against AML patient-derived leukemic cells; format: cell-based, human
# Excerpt: Methods: ADCC activity is mediated through binding of NK cell's CD16 receptors to the Fc region of antibodies. A Jurkat-Lucia NFAT-CD16 ADCC Reporter cell assay (Invivogen, Cat #jktl-nfat-cd16; https://www.invivogen.com/jurkat-lucia-nfat-adcc-adcp-cells) was used to analyze IL1RAP mAb STLX2012 for ADCC activity. Briefly, the Jurkat cell line was engineered to express the cell surface Fc receptor CD16A (FcγRIIIA) and the Lucia luciferase reporter gene. ADCC is triggered by CD16A cross-linking upon antigen-bound antibody binding at the surface of immune effector cells. Cells are maintained in the presence of zeocin (100 μg/ml) and blasticidin (10 μg/ml).
# [4] = system: AML cells (patient #6); assay: AML patient-derived sample engraftment in immunodeficient mice; format: in vivo, NSG-SGM3 immunodeficient mice
# Excerpt: Methods: NSG™-SGM3 immunodeficient mice (Jackson Laboratory) were irradiated with 200 rads and then infused with AML cells (patient #6) collected from a leukapheresis sample and then treated bi-weekly with three doses of STLX2012 or control IgG1 antibody for 7 weeks. Doses were 1 mpk, 10 mpk, or 30 mpk for STLX2012, and 30 mpk for control IgG1.
# [5] = molecular target: T1, hIL1RAP; assay: Binding of mAbs to human IL1RAP protein by cell-free ELISA; set-up: extracellular domain His-tagged, Cat #10121-H08H; His; purchased Sino Biological 10121-H08H; conditions: FIG. 1
# Procedure: Recombinant human or mouse IL1RAP proteins (Sino Biological, Beijing, China; Cat #10121-H08H and Sino Biological, Cat #52657-M08H respectively) were diluted in PBS, pH 7.4 at concentration of 1 μg/ml, coated on high-binding 384-well clear plates and incubated overnight at 4° C. Following, plates were washed 3× with 0.05% Tween-20 in PBS, pH 7.5 and then blocked with 1% BSA in PBS for 1 hour at room temperature. After 3× washes, wells were incubated with each antibody at the highest concentration of 100 nM followed by seven serial half log dilutions (in 1% BSA and 0.05% Tween-20 in PBS) for 1 hour at room temperature. Plates were then washed 3× and incubated with […] detection antibody (Medna, TX, USA; Cat #D8212, 0.5 μg/ml diluted in 0.02% Tween-20 in PBS). After 5× washes, Supersignal ELISA Pico substrate (Thermofisher, MA, USA; Cat #37069) was applied to wells and chemiluminescent signal was read on Sprectramax L for 200 ms/well. Similarly, detection with specific κ and λ antibodies was conducted to define light chain isotyping.
# Binding of mAbs to human IL1RAP protein was determined by cell-free ELISA. mAbs bound to human IL1RAP and EC50 values were calculated at the nM range.
# [6] = day 50, 1, 10, 30 mpk bi-weekly 7 weeks, vs control IgG
IC50 [1] [nM],Molecule,Inhibition of clonogenic capacity (colony formation) [2],ADCC activity (reporter) [3],"bone marrow (BM) chimerism, dose dependence ([4]; 1, 10, 30 mpk)","human CD45+AML cells in spleens [4, 6]","human CD45+AML cells in the bone marrow [4, 6]",Binding to human IL1RAP [5]
1.31,"74804_12A21B: anti-IL1RAP mAb; VH SEQ ID NO:6, VL SEQ ID NO:23, κ light chain (antibody, V domains shown, 74804_12A21B VH and 74804_29D13A VH; 74804_12A21B VL) VH: QVQLLQSGAEVKKPGSSVKVSCKASGGTFSIYAIDWVRQAPGQGLEWMGGIIPIFGTANSAQKFQGRVTITADKSTSTAYMELSSLRSEDTAVYYCARNGATSDAFDMWGQGTMVTVSS VL: EIVLTQSPGTLSLSPGERATLSCRASLSVSSNYLAWFQQRPGQAPRLLIHGVSRRATGIPDRFSGSGSGTDFTLTISRLEPEDFAVYYCQQYGSSPLTFGGGTKVEIK",inhibited the clonogenic capacity,showed ADCC activity,dose-dependent reduction in bone marrow (BM) chimerism,significantly reduced human CD45+AML cells,significantly reduced human CD45+AML cells,bound to human IL1RAP in a dose dependent manner
2.29,"74804_43F04A: anti-IL1RAP mAb; VH SEQ ID NO:7, VL SEQ ID NO:22, κ light chain (antibody, V domains shown, 74804_43F04A VH; 74804_07K10A VL, 74804_29D13A VL and 74804_43F04A VL) VH: QVQLLQSGAEVKKPGSSVKVSCKASGGTFSIYAIDWVRQAPGQGLEWMGGIIPIFGTENSAQNFQGRITITADKSTNTAYMELSSLRSEDTAVYYCARNGATSDAFDIWGQGTMVTVFS VL: EIVLTQSPGTLSLSPGERATLSCRASLSVSSNYLAWFQQRPGQAPRLLIYGVSRRATGIPDRFSGSGSGTDFTLTISRLEPEDFAVYYCQQYGSSPLTFGGGTKVEIK",,,,,,bound to human IL1RAP in a dose dependent manner
